# Data from the Human Domainome abundance scans (Beltran et al. 2025).
# ± gives the uncertainty stated by the source.
# B1: Nucleosome-remodeling factor subunit BPTF, residues 2862 to 2918; numbered along this chain, Q12830 (parent)
# chain: TKKDTKLYCICKTPYDESKFYIGCDRCQNWYHGRCVGILQSEAELIDEYVCPQCQST
# Variants of: B1
# Assay: abundance fitness (aPCA) (normalised: wild type 0, dead -1); higher = more abundant; growth selection in yeast, the domain comes from the species named
# Conditions: Homo sapiens
row,Variant,abundance fitness
1,C51P,-0.919 ± 0.19
2,C51R,-0.743 ± 0.088
3,C51T,-0.981 ± 0.13
4,C51L,-0.889 ± 0.093
5,C51F,-0.916 ± 0.11
6,C51D,-0.718 ± 0.14
7,C51E,-0.75 ± 0.096
8,C51I,-1.08 ± 0.17
9,C51N,-0.904 ± 0.16
10,C51Y,-0.928 ± 0.14
11,C51A,-0.777 ± 0.094
12,C51M,-0.688 ± 0.15
13,C51K,-0.774 ± 0.16
14,C51S,-0.53 ± 0.089
15,C51Q,-0.98 ± 0.15
16,C51H,-0.848 ± 0.23
17,Y49Q,-0.615 ± 0.15
18,Y49L,-0.36 ± 0.075
19,Y49H,-0.491 ± 0.17
20,Y49F,-0.069 ± 0.11
21,Y49S,-0.427 ± 0.075

row,Variant,abundance fitness
1,Y49M,-0.481 ± 0.11
2,Y49V,-0.381 ± 0.091
3,Y49D,-0.715 ± 0.12
4,Y49P,-0.494 ± 0.13
5,Y49W,-0.055 ± 0.12
6,Y49A,-0.382 ± 0.094
7,Y49T,-0.447 ± 0.1
8,Y49C,-0.761 ± 0.18
9,Y49G,-0.526 ± 0.11
10,Y49R,-0.47 ± 0.085
11,I38A,-0.452 ± 0.1
12,I38K,-0.278 ± 0.13
13,I38N,-0.547 ± 0.11
14,I38P,-0.428 ± 0.095
15,I38W,-0.46 ± 0.12
16,I38R,-0.234 ± 0.075
17,I38D,-0.432 ± 0.1
18,I38G,-0.489 ± 0.095
19,I38M,-0.084 ± 0.13
20,I38H,-0.342 ± 0.13
21,I38C,-0.582 ± 0.098

row,Variant,abundance fitness
1,I38T,-0.146 ± 0.11
2,I38L,-0.014 ± 0.072
3,I38F,-0.182 ± 0.1
4,I38E,-0.44 ± 0.16
5,I38Y,-0.059 ± 0.11
6,E48P,0.086 ± 0.086
7,E48V,-0.022 ± 0.09
8,E48Q,-0.161 ± 0.12
9,E48K,-0.109 ± 0.12
10,E48H,-0.062 ± 0.11
11,E48C,-0.009 ± 0.099
12,E48I,-0.063 ± 0.12
13,E48N,0.076 ± 0.14
14,E48A,-0.008 ± 0.095
15,E48T,-0.002 ± 0.096
16,E48L,-0.139 ± 0.083
17,E48S,0.051 ± 0.088
18,E48W,-0.295 ± 0.12
19,E48G,-0.112 ± 0.095
20,E48Y,-0.125 ± 0.1
21,E48F,-0.262 ± 0.11

row,Variant,abundance fitness
1,E48R,0.055 ± 0.07
2,P52Y,-0.327 ± 0.14
3,P52D,0.113 ± 0.12
4,P52G,-0.019 ± 0.079
5,P52L,-0.125 ± 0.076
6,P52W,-0.345 ± 0.13
7,P52K,0.126 ± 0.1
8,P52C,-0.186 ± 0.11
9,P52E,0.009 ± 0.091
10,P52V,-0.017 ± 0.08
11,P52A,-0.058 ± 0.08
12,P52M,-0.149 ± 0.11
13,P52F,0.032 ± 0.12
14,P52I,-0.108 ± 0.14
15,P52S,0.054 ± 0.082
16,P52T,-0.071 ± 0.079
17,P52Q,-0.033 ± 0.12
18,P52R,-0.048 ± 0.077
19,S41Q,-0.07 ± 0.13
20,S41G,-0.105 ± 0.074
